We go through one substance from PMC9304885.

For this assay, the target named is recombinant M. hyopneumoniae mhp390 (rMhp390) (Mycoplasma hyopneumoniae). Kind of assay: BLI; ForteBio Octet Red96; biotinylated rMhp390 immobilised on streptavidin (SA) biosensors, rNOD1 in solution; PBST (PBS, 0.02% Tween20); association 300 s, dissociation 600 s; 1:1 binding model. (Biolayer interferometry detects binding as a change in optical thickness at a sensor tip.)

Consider “recombinant NOD1 (rNOD1), nucleotide-binding oligomerization domain 1 (receptor)”, for which the equilibrium dissociation constant (Kd) amounted to 8.14 µM.

The term Kd denotes the constant that tells how readily two partners part at equilibrium.
